Laboratory results: patent US20220280663A1, “[…] TARGETED […] ACTIVE SUBSTANCE OR LABEL […] SYSTEM” (CELLIS AG, priority 2016, published 2022)

Columns and labels:
Type in all cases: cell-based
CD45^+ leukocyte cell = test: Uptake and storage of iron binding proteins by CD45+ leukocyte cells
Experimental: Obtained cells are incubated in ferritin solution for a time and at the concentration sufficient to ensure proper ratio of ferritin/cell for their full load and also to ensure proper drug content to obtain therapeutic effect or contrast for proper imaging. The time and concentration may vary depending on the number of molecules encapsulated/adsorbed into the ferritin cage, status of cell activation, condition and number of their intended administration.
For example, to ensure proper load with ferritins, cells are incubated for 1-4 hours in ferritin solution 0.8 mg/ml in standard culture conditions. The frame of ferritin concentration may vary at least between 0.01 and 4 mg/ml as well as incubation time (5 min-6 hours or more). Adjusting time and concentration of ferritin load to cells, the influence of ferritin and treatment conditions on cell viability should be minded.
Obtained cells are incubated in haemoglobin solution for a time and at the concentration sufficient to ensure proper ratio of haemoglobin/cell for their full load and also to ensure proper drug content to obtain therapeutic effect or contrast for proper imaging. The time and concentration may vary depending on the number of molecules linked with the haemoglobin molecule, status of cell activation, condition and number of their intended administration. […]

cancer cells = test: Transfer of iron binding proteins from loaded leukocytes to co-cultured cancer cells
From the text: However, in case of cancer cells the ratio of both cell types is crucial. The more macrophages the better and faster the transport is. The most efficient transfer to the cancer cells was observed when ratio of macrophages to cancer cells was 1:1 or more.
This transfer of compounds conjugated with anticancer drugs made the effect inducing apoptosis in cancer cells (FIG. 6, 13).
However, the ratio of both cell types is important. The more monocytes the better and faster the transport is. The most efficient transfer to the cancer cells was observed when ratio of monocytes to cancer cells was 1:1 or more.
However, the ratio of both cell types is crucial. The more granulocytes the better and faster the transport is. The most efficient transfer to the cancer cells was observed when ratio of granulocytes to cancer cells was 1:1 or more.
However, the ratio of both cell types is crucial. The more lymphocytes the better and faster the transport is. The most efficient transfer to the cancer cells was observed when ratio of lymphocytes to cancer cells was 1:1 or more.

EMT6 = test: Ferritin transfer from RAW264.7 macrophages to EMT6 cells under oxidative stress
From the text: FIG. 27: Ferritin transfer was examined in cancer cells (EMT6) co-cultured with ferritin-loaded macrophages (RAW264.7) for 2 hrs. Three experimental conditions were used: “ctrl” (normal co-culture, no stress); “EMT6 OS” when EMT6 cells were subjected to the oxidative stress before co-culture and then co-cultured with macrophages at normoxic conditions and “co-culture OS” when both cell types were subjected to the oxidative stress before the co-culture. […] It can be related with higher load of ferritin due to oxidative stress and therefore more efficient transfer, or oxidative stress triggers macrophages to more efficiently deliver ferritins to cancer cells in order to reduce oxidative stress in neighboring cells.

B1: ferritins: recombinant mouse ferritin protein of SEQ ID NO: 4; mammalian ferritin H and/or L homopolymers (protein)
chain: MTTASPSQVRQNYHQDAEAAINRQINLELYASYVYLSMSCYFDRDDVALKNFAKYFLHQSHEEREHAEKLMKLQNQRGGRIFLQDIKKPDRDDWESGLNAMECALHLEKSVNQSLLELHKLATDKNDPHLCDFIETYYLSEQVKSIKELGDHVTNLRKMGAPEAGMAEYLFDKHTLGHGD
- release of absorbed ferritin to the culture medium (CD45^+ leukocyte cell; after ferritin loading (FIG. 9)): do not release it to the culture medium
- uptake of iron binding protein by cells (CD45^+ leukocyte cell; incubation 1-4 hours in protein solution (ferritin 0.8 mg/ml; haemoglobin, transferrin 0.1 mg/ml), standard culture conditions): very easily uptake
- specificity of transfer from macrophages: cancer cells versus non-cancer cells (cancer cells; FIG. 11): much more specific to cancer cells than to non-cancer cells
- transport to cancer cells from granulocytes (cancer cells; loaded granulocytes (FIG. 15)): very easily transport
- transport to cancer cells from lymphocytes (cancer cells; loaded lymphocytes (FIG. 16)): very easily transport
- transport to cancer cells from macrophages (cancer cells; loaded macrophages, mouse mammary, colon, canine mammary, human breast, pancreatic, bladder cancer cells): very easily transport
- transport to cancer cells from monocytes (cancer cells; loaded monocytes (FIG. 14)): very easily transport
- ferritin received by cancer cells from macrophages versus control (EMT6; EMT6 OS: EMT6 cells subjected to oxidative stress before 2 hrs co-culture): more ferritins than control cells
- ferritin uptake by cancer cells from macrophages (EMT6; co-culture OS: both cell types subjected to oxidative stress before 2 hrs co-culture): even more efficient
